Values of other authors, collected in paper PMC3000440.
pKd: −log10 of the molar value.

Assays:
IGF-IR (Homo sapiens) = IGF-IR (Homo sapiens) (UniProt P08069)
Met (Homo sapiens) = Met (Homo sapiens) (UniProt P08581)
IGF-I (Homo sapiens) = IGF-I (Homo sapiens) (UniProt P05019)
EGFR (Homo sapiens) = EGFR (Homo sapiens) (UniProt P00533)

UniProt P05019, sequence (P05019 49-118): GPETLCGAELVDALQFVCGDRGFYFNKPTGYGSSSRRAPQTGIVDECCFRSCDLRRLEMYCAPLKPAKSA
UniProt P08581, sequence (P08581 25-932): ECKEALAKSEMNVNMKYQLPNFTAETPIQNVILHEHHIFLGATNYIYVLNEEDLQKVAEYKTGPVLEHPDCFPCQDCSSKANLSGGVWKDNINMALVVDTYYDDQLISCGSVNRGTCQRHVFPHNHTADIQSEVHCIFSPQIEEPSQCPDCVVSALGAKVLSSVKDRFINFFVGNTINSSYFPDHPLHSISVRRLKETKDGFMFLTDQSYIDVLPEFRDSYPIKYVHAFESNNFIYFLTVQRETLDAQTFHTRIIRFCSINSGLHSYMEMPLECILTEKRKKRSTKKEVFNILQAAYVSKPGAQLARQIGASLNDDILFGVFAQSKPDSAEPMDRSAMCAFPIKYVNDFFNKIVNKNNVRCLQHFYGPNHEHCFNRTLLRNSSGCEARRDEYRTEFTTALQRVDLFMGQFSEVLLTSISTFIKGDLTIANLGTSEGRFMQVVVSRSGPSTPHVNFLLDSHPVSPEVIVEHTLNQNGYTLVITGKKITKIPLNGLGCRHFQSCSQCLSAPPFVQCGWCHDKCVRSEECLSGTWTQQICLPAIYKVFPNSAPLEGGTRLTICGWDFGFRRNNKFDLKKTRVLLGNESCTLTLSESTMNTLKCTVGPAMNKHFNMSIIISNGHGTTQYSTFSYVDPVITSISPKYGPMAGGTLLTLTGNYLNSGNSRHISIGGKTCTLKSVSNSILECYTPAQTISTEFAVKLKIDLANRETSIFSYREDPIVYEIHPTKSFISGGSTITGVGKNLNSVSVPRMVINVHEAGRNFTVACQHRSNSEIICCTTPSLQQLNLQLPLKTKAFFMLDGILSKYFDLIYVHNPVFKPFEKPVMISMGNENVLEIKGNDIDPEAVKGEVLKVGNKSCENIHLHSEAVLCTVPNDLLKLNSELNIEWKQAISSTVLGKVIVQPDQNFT
UniProt P08069, sequence (P08069 31-736, chain 1 of 2): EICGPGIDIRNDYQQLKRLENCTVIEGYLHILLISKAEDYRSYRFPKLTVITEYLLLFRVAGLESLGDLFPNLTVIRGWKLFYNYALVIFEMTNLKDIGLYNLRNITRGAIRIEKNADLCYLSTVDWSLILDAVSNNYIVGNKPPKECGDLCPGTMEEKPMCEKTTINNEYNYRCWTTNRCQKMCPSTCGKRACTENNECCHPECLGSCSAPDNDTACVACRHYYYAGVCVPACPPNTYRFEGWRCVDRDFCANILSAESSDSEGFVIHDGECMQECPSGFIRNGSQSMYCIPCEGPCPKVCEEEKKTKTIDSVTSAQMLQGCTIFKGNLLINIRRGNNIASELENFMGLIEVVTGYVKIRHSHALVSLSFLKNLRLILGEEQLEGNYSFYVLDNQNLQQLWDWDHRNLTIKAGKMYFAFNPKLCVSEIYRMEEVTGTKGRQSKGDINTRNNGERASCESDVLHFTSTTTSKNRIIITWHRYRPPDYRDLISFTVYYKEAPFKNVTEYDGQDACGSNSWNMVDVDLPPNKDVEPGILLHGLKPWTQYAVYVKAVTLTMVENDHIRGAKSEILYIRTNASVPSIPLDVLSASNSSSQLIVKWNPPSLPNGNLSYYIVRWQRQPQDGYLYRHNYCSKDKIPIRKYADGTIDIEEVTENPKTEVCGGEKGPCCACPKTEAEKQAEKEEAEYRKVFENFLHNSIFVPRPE
UniProt P08069, sequence (P08069 741-935, chain 2 of 2): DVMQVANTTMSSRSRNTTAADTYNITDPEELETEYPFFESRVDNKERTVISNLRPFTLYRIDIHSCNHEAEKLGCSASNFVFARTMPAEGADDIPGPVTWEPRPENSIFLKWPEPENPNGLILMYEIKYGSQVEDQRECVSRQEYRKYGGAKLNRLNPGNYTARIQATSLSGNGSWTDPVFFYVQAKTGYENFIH

pKd (IGF-IR (Homo sapiens)): 8.82
pKd (Met (Homo sapiens)): 8.82
pKd (IGF-I (Homo sapiens)): 7.74
pKd (EGFR (Homo sapiens)): 7.06
Substance: decorin (from UniProt P07585)
